Percent of parent data for four variants are collected here from article PMC4346919 (2015).

Sequences and labels used below:
B1: biotin-labeled ALG-2 [modified: biotin-labeled; biotin-labeled] [human] / GST-SGG-linker-8xHis fused with the eight-residue Sec31A peptide (NPPPPGFI), wild type [human] (parent complex)
chain 1: MAAYSYRPGPGAGPGPAAGAALPDQSFLWNVFQRVDKDRSGVISDTELQQALSNGTWTPFNPVTVRSIISMFDRENKAGVNFSEFTGVWKYITDWQNVFRTYDRDNSGMIDKNELKQALSGFGYRLSDQFHDILIRKFDRQGRGQIAFDDFIQGCIVLQRLTDIFRRYDTDQDGWIQVSYEQYLSMVFSIV
chain 2: NPPPPGFI

In this experiment the parent is B1. Description: far-Western blot (FW), signal intensity measured with ImageJ; n = 4; read off a plot.
Regarding chain 2 P5L, the percent of parent is ~55 % of WT.
Consider chain 2 I8G, for which the percent of parent was ~9 % of WT.
chain 2 P4A: the percent of parent is ~42 % of WT.
The same measure for chain 2 N1P: ~100 % of WT.
